In patent US11591404B2, “Treatment of cancer using a CD123 chimeric antigen receptor” (Novartis AG, priority 2014, dated 2023):

B1: 1172: murine CD123 CAR construct, CD123 4-1BBCD3z-CAR, SEQ ID NO: 707, described in PCT/US2014/017328 (protein)
chain: MALPVTALLLPLALLLHAARPGSDIVLTQSPASLAVSLGQRATISCRASESVDNYGNTFMHWYQQKPGQPPKLLIYRASNLESGIPARFSGSGSRTDFTLTINPVEADDVATYYCQQSNEDPPTFGAGTKLELKGGGGSGGGGSSGGGSQIQLVQSGPELKKPGETVKISCKASGYIFTNYGMNWVKQAPGKSFKWMGWINTYTGESTYSADFKGRFAFSLETSASTAYLHINDLKNEDTATYFCARSGGYDPMDYWGQGTSVTVSSASSGTTTPAPRPPTPAPTIASQPLSLRPEACRPAAGGAVHTRGLDFACDIYIWAPLAGTCGVLLLSLVITLYCKRGRKKLLYIFKQPFMRPVQTTQEEDGCSCRFPEEEEGGCELRVKFSRSADAPAYKQGQNQLYNELNLGRREEYDVLDKRRGRDPEMGGKPRRKNPQEGLYNELQKDKMAEAYSEIGMKGERRRGKGHDGLYQGLSTATKDTYDALHMQALPPR
B2: CAR123-4: fully human anti-CD123 scFv CAR with 4-1BB and CD3zeta; CAR amino acid SEQ ID NO: 101 (protein, listed as Homo sapiens)
chain: MALPVTALLLPLALLLHAARPQVQLQQSGAEVKKSGASVKVSCKASGYTFTDYYMHWLRQAPGQGLEWMGWINPNSGDTNYAQKFQGRVTLTRDTSISTVYMELSRLRSDDTAVYYCARDMNILATVPFDIWGQGTMVTVSSASGGGGSGGRASGGGGSDIQMTQSPSSLSASVGDRVTITCRASQSISSYLNWYQQKPGKAPKLLIYAASSLQSGVPSRFSGSGSGTDFTLTISSLQPEDFATYYCQQGDSVPLTFGGGTKVEIKTTTPAPRPPTPAPTIASQPLSLRPEACRPAAGGAVHTRGLDFACDIYIWAPLAGTCGVLLLSLVITLYCK
B3: CAR123-3: fully human anti-CD123 scFv CAR with 4-1BB and CD3zeta; CAR amino acid SEQ ID NO: 100 (protein, listed as Homo sapiens)
chain: MALPVTALLLPLALLLHAARPQVQLVQSGAEVKKPGASVKVSCKASGYIFTGYYIHWVRQAPGQGLEWMGWINPNSGGTNYAQKFQGRVTMTRDTSISTAYMELSGLRSDDPAVYYCARDMNILATVPFDIWGQGTLVTVSSGGGGSGGGGSGGGGSDIQLTQSPSSLSASVGDRVTITCRASQSISSYLNWYQQKPGKAPKLLIYAASSLQSGVPSRFSGSGSGTDFTLTVNSLQPEDFATYYCQQGDSVPLTFGGGTKVEIKTTTPAPRPPTPAPTIASQPLSLRPEACRPAAGGAVHTRGLDFACDIYIWAPLAGTCGVLLLSLVITLYCKRGRKKLLYIFKQPFMRPVQTTQEEDGCSCRFPEEEEGGCELRVKFSRSADAPAYKQGQNQLYNELNLGRREEYDVLDKRRGRDPEMGGKPRRKNPQEGLYNELQKDKMAEAYSEIGMKGERRRGKGHDGLYQGLSTATKDTYDALHMQALPPR
B4: 1176: murine CD123 CAR construct, CD123 4-1BBCD3z-CAR (26292), SEQ ID NO: 708, described in PCT/US2014/017328 (protein)
chain: MALPVTALLLPLALLLHAARPGSDVQITQSPSYLAASPGETITINCRASKSISKDLAWYQEKPGKTNKLLIYSGSTLQSGIPSRFSGSGSGTDFTLTISSLEPEDFAMYYCQQHNKYPYTFGGGTKLEIKGGGGSGGGGSSGGGSQVQLQQPGAELVRPGASVKLSCKASGYTFTSYWMNWVKQRPDQGLEWIGRIDPYDSETHYNQKFKDKAILTVDKSSSTAYMQLSSLTSEDSAVYYCARGNWDDYWGQGTTLTVSSASSGTTTPAPRPPTPAPTIASQPLSLRPEACRPAAGGAVHTRGLDFACDIYIWAPLAGTCGVLLLSLVITLYCKRGRKKLLYIFKQPFMRPVQTTQEEDGCSCRFPEEEEGGCELRVKFSRSADAPAYKQGQNQLYNELNLGRREEYDVLDKRRGRDPEMGGKPRRKNPQEGLYNELQKDKMAEAYSEIGMKGERRRGKGHDGLYQGLSTATKDTYDALHMQALPPR

How the values were obtained:
[1] = test system: cynomolgus CD123; assay: Cross-reactivity of anti-CD123 clones against cynomolgus CD123; format: binding
[2] = test system: MOLM14 (CD123+ tumor cells); assay: CD107a degranulation of CART cells, 2 hours; format: cell-based; conditions: 2-hr in vitro assay, CD123+ targets
Experimental: To assess degranulation, CART cells (NVS 2-4, 1172 and 1176 clones) were thawed, rested overnight at a concentration of 2e^6 cells/ml in T cell media. Cells were then counted and resuspended at 1e^6 cells/ml the following day. Tumor target cells (TCM, PMA/iono, MOLM14 or JURKAT) were resuspended at 5e^6 cells/ml. Cells were plated at a ratio of 1e^5 T cell: 5e^5 tumor cell in 48 well plates and incubated for 2 hours in the presence of anti-CD107a PECy7, anti-CD49d purified, and anti-CD28 purified antibodies. Cells were then harvested, stained with anti-CD3 APC and acquired using BD LSR Fortessa (FIG. 7).

Row | Molecule | cross-reactivity against cynomolgus CD123 [1] | T cell degranulation (CD107a) [2] [%]
1 | B1 | is not | –
2 | B2 | cross-reactive against cynomolgus CD123 | –
3 | B3 | cross-reactive against cynomolgus CD123 | –
4 | B4 | cross-reactive against cynomolgus CD123 | 65
